According to the nanobody polyreactivity screen of Harvey et al. (2022):

Assay: yeast display, Sf9 membrane polyspecificity reagent, FACS + sequencing; frameworks hold sequencing errors
Summary of the method: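 Genes from sorted yeast were amplified by colony PCR, read by MiSeq 2 × 250 sequencing and filtered on CDR length. These cells carried a synthetic nanobody library in Saccharomyces cerevisiae BJ5465 and were sorted by FACS into low and high (top ~1%) gates on anti-HA and streptavidin fluorescence. Polyreactivity is labelled according to the gate of origin.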

| Sequence | polyreactivity (PSR sort gate) |
| --- | --- |
| QFQLVESGGGLVQAGGSLRLSCAASGSIFSYNAMGWYIQAPGKERELVASITSGGRTYYADSVKGRFTISRDNAKNTVYLQMYSLKPEDTAVYYCAAYQTGLHGFYSWGQGTQVTVSS | high polyreactivity |
| QFQLVESGGGLVQAGGSLRLSCAASGSIFVLYAMGWYRQAPGKERELVAAITSAGSTYYADSVKGRFTISRDNAKNTVYLQMNSLKPEDTAVYYCAAGFYGYARHTWYNDWGQGTQVTVSS | high polyreactivity |
| QFQLVESGGGLVQAGGSLRLSCAASGSIFYYNAMGWYRQAPGKEPELVAAINSGGTTYYADSVKGRFTISRDNAKNTVYVLMNSLKPEDTAVYYCAARTTRRSRYKYDYWGQGTQVSVSS | high polyreactivity |
| QFQLVESGGGLVQAGGSLRLSCAASGSIIGPYAMGWYRQAPVKERELVAVISSGDSKNYADSVKGRFTISRDNAKNTVYLQMNSLKQEDNEVSYCRCKYDVAHHFWVYRYDYWGHGTQVTVSS | low polyreactivity |
| QFQLVESGGGLVQAGGSLRLSCAASGSTFIYYAMGWYRQAPGKDRELVAAISGCGASTYYADSVKGGFTISRDNAKNTVYLQMNSLKPEDTAVYYCHFYRWRGYDYWGQGTQVTVSS | high polyreactivity |
| QFQLVESGGGLVQAGGSLRLSCAASGSTFKYSAMGWYRQAPGKERELVAIIRSGGRTNYADSVKGRFTISRDNAKNTVYLQMNSLKPEDTAVYYCNARYGRYYGAYEYWGQGTQVTVSS | high polyreactivity |
| QFQLVESGGGLVQAGGSLRLSCAASGSTFPLYAMGWYRPAPGKERELVAAITSGGGNTYYADSVKGRFTISRDNAKNTVYLQMNSLKPEDTAVYSCAAVGGYKSYYSYEYDYWGQGTQVTVSS | low polyreactivity |
| QFQLVESGGGLVQAGGSLRLSCAASGSTFTNYAMGWYRQAPGKEREFVAAITFRGGRTYYADSVKGRFTISRHNAKNTVYLQLNSLKPEDTAVYYCNKRTSPKRFDYWGQGTQVTVSS | high polyreactivity |
| QFQLVESGGGLVQAGGSLRLSCAASGTFGSYAMGWYRHAPGKERELVASISGTGGDTYYADSVKGRFTISRDNAKNTVYLQMNSLKPEDTAVYYCAARWSRYWYLGSWLYDYWGQGSQVTVSS | high polyreactivity |
| QFQLVESGGGLVQAGGSLRLSCADSGFIFFSNARPWYRHAPGKDRELVAVIDRATSTYYADSVKGRFTISRDNAKYTVYLQMNSLKPEDTAVYYCNADGEEVYDCNYFLSFKGDYWGQGTQVTVSS | low polyreactivity |
| QFQLVESGGGLVQAGGTLRLSCAPSGFTFTLNPLGWYRQAPGKERQLVATIDWSGTSTYYADSVKGRFRISRDKAKNTFYLQMNCMKPVDTAVYYCARVYQGYPGFYDGEYWGQGNQVTVSS | low polyreactivity |
| QFQLVESGGGLVQARGSLRLSCAASGITFPVYAMGWYRQAPGKEREFVASIRFSTGRTYYADSVKGRFTISRDNAKNTVYLQINSLKPEDTAVYYCRGSTQSPYNSWGQGTQVTVSS | high polyreactivity |
| QFQLVESGGGLVQPGGSLRLSCAASGGIFKRYAIGWYRQAPGKERELVAGISRRSGRTYYADSVKGRFTISRDNAKNTVYLQMNSLKPEDTAVFYCAARGIGGYDYWGHGTQVTVSS | high polyreactivity |
| QFQLVESGGGLVQSGGSLRLSCAPTGLIFRPYAMGCYRQAPGKERELVAGINSGGNTDYADSVKGRFTISRDNAKNTVYLQMNSLKPEDTAVYYCNREYQVTIYDYCGQGTQVTVSS | low polyreactivity |
| QFQLVESVGGLVQAGGSLRLSCAASGFTFPSYAMGWYRQAPGKERELVAAISYRGGRTYYADSVKWRFTISRDNAKNTVYLQMNSLKPEDTAVYYCNALFATVPPWGFDYWGQGTQVTVSS | high polyreactivity |
| QFQLVESVGGLVQAGGSLRLSCAASGLNFSNYAMGWYRQAPGKERELVAVSSSRVSRTYYADSVKGRFTISRDNAKNTVYLQMISLKPEDTAVYYCAARDRTEFYYWGQGTQVTVSS | high polyreactivity |
| QFQLVESWGGLVPPGGILRLSCAASRSTFRYYPIGRYRQAPGHERELVAVISSSGSRTNYADSVKGRFTISRDTAKNTVYLQLNSLKPEDSAVYYCGAVSSYRYYADYYWGQGTQVTVSS | high polyreactivity |
| QFQLVETVGGLVQAGGSLRLSCAASGSIFPGYAMGWYRQAPGKERELVATITWSGGSTYYADSVKGRFTISRDNAKNTVYLQMYSLIPEDTAVYYFNADSNWYYQWNYYGLYDYWGKGTQVTVSS | low polyreactivity |
| QFQRVESGGGLVQAGGSLRLSCAASGRILSYKVMGWYRQAPGKEREFVASIRRTGVRTYYADSVKGRFTISRDNAKNTVYLQINSLKPEDTGVYYCNAANFHFWDYYYWGQGTQVTVSS | low polyreactivity |
| QGHLRESGGGLVQAGGSLRLTCAASGSNLWQYAMGWYRQATGKERELVAAITYSGGSTHYADSVKGRFTISRDNAKNTVYLQLNSLKPEDTAVYYCAAGSWYRYAALRYDHWGQGTQVTVST | low polyreactivity |
| QGHLVESGGGLVQAGGSLRLSCAASGITLTRYAMGWYRQAPWKERELVAAISTGGGSTYYADSVKGRFTFSRDNAKNTVYLQMNSLKPEDTAVYYCAARIRFARGYPITRTYDYWGQGTQVTVSS | high polyreactivity |
| QGHLVESGGRLVQAGGSLRLSCAASGRIFPTYTMGWYRQAPWKERELVAAIRRGGGRTYYADSVKGRFTISRDNAKKTVYLQMNSLKPEDTAVYYCAAPFYRQSLIEYDYWGQGTQVTVSS | high polyreactivity |

| Sequence | polyreactivity (PSR sort gate) |
| --- | --- |
| QGQHVESGGGLVQAGGRLRLSCAASGSTFGDNAMGWSRQAPGKERELVAAISSGSGGSTYYADSVKGRFTISRDNAKNTVYLQMNSLKPEDTAVYYCADVGPYGYYYGHYGYWGQGTQVTVSS | low polyreactivity |
| QGQHVESGGGLVQAGGSLRLICAASGRIIVHYVMGWYRQAPRKERELVAAISRSGGRTYYADSVKGRFTISRDNAKNTVYLQMNSLKPEDTAVYYCATDASTDKYDYWGQGTQVTVSS | high polyreactivity |
| QGQHVETGGGLVQAGGRLRLSCAASGSTLRDYVMGWSRQAPGKERELVAAITSRVDDTYYADSVKGRFTISRDNAKNTVYLQMNSLKPEDTAVYYCAADSSVTLRIGGYYWFYAFDYWGQGTQVTVSS | low polyreactivity |
| QGQLEESGGGLVQAGGSLRLSCAASGITFNDYTMGWYRQAPGKEMELVAVITKTGSRTYYADSVKGRFTISRDNAKNTVYLQMNSLKPEDTAVYYCNALYYIHYYQGYGYWGQGTQVTVSS | high polyreactivity |
| QGQLEESGGGLVQAGGSLRLSCAASGNTFRSYAMGSYRQAPGKERELVAAISGRGGSTYYADSVKGRFTISRDNAKYTVFVQLNSLKPDDTAVYYCAAESRRVNYANDDWGQGTQVTVSS | high polyreactivity |
| QGQLGESGGGLVQAGGSLRLSCAASGGTFYYYAMGWYRHAPGKEREFVAAITWTGGRTYYADSVKGRFTISRDNAKNTVYLQMNSLKPEDSAVYYCAASDRYGGRDYWGQGTQVTVSS | high polyreactivity |
| QGQLLESAGGLLQAGGSLRLSSAASGFNFQQYVMGWYRQARGNERELVASISRRGSRTYYADSVKGGFTISRDNAKNTVYLQMNSLKPEDTAVYYCAAPPSTSEGPYGYWGQGTQVSVSS | high polyreactivity |
| QGQLQESGGGLVKAGGSLRLSCPASGNISNHKDMGWYRQAPGKESEFVAGITAGGITNYADSVTGRFTICRDNAKNTVDLVMNSLKPEDTAVYYSAAYPDYAKSYGYWGQGTQATVSS | low polyreactivity |
| QGQLVESAGGLVQAGGSLRLSCGASGRSFYSYTMGWYRQAPVKERELVAAITRADRTHYADSVKGRFTISRDYATKHVDCERNSQKPEDTAVYYAATRQVYSVRYYYRGQGTQVTVSS | high polyreactivity |
| QGQLVESGGGLGQAGGSLRLSCGASGRTFDSYAMGWYRPAPGKEREFVAAISYSGTSTYYAVSVTGRFTISRDKAKNTVYLQMNSLIPEDTAVYYCAKEYTFRQWGQGTQVTVSS | low polyreactivity |
| QGQLVESGGGLVQAGCSLRLSCAASGITYTPYALGWYRQAPGKAREFVASISVSGGSTYYADSVKGRFRFSRVNAKNTVYLEMNCLKPEDTAVYYCNAVSYRKHYFNSLYGYWGLGTQVTVSS | high polyreactivity |
| QGQLVESGGGLVQAGGCLRLSCAASGAIFCYAMGWYRQAPGKERDLVAAISFSGVSTYYADSVKGRFTISRENAKNSVYLQMISLIPEDTAVYYCNAYSDGDEDYWGQGTKVTVSS | low polyreactivity |
| QGQLVESGGGLVQAGGILRLSCAASGIIFCRYAMGWYRQAPGKERELVATITWRGGSTYYADSVKARFTNSRDNAKNTVYLQMNSLKPEDTAVYSSAADTRPSRSFRARDYWGQGTQVTVSS | low polyreactivity |
| QGQLVESGGGLVQAGGKLRLSCAASGSIFVRYAIGWYRQAPGKERELVAAISTRGDTTYYADSVKGRFTNSRDNAKNTVYLQLNSLKPEDTAVFYCAAVASQYPGPRNYDYWGQGTQVTVSS | low polyreactivity |
| QGQLVESGGGLVQAGGRLRLSCAASGSIFASYAMGWYRQAPGKERELVAAITSDGNTYYADSVKGRFTISRDNAKNTVYLQMNSLKPEDTAVYYCAADRYSTYPYAKGTEFYYWGQGTQVTVSS | low polyreactivity |
| QGQLVESGGGLVQAGGRLRLSCAASGSTFYGNAMGWYRQAPGKERELVAAITWGDASTYYADSVKGRFTISRDNAKNPVYLQMNSLKPEDTAVSYCAVDESYGSSSDMDYWGQGTQVTVSS | low polyreactivity |
| QGQLVESGGGLVQAGGSIRLSCAAYGSTFNVNAMGLYRQAPGKERELVAAISRSCVSTYYADSVKWRFTISRDNAKNTVYLQMNSLKPEDTAVYYCNAYPGNWRGYRMDYWGQGNQVTVSS | high polyreactivity |
| QGQLVESGGGLVQAGGSLRFSCAASGRTLSAHAMGWYREAPGTERELVATISTRGGRTYYADSVKGRFTISRDHAKNTVYIQMNSLKPEHTAVYSCAVTIRAKYTLKEDYWGQGTQVTVSS | low polyreactivity |
| QGQLVESGGGLVQAGGSLRISSAASGGNFPGNTMGWYRLAPGKESELVAAISNGVSTNYADSVKGGFTISRDNAKNTVYLQMNSQKPEDTAVYYCAAEWSWWDGEDYHFEYDYWGQGTQVTVSS | low polyreactivity |
| QGQLVESGGGLVQAGGSLRLSCAASGFIFFYYAMGWYRQAPRKERELVATISANGGNTYYADSVKGRFTISRDNAKNTVYLQMNSLKPEDTAVSYCARYTWYLRDWQWYYWGDEDYWGQGTQVTVSS | high polyreactivity |
| QGQLVESGGGLVQAGGSLRLSCAASGFIFRYYTMGWYRQAPGKERELVAAITSRGGSTYYADSVKGRFTISRDNAKNTFYLQMNSLKPEDTAVYYCATTRWGYEYWGQGTQVTVSS | high polyreactivity |
